In patent US20110091994A1, “Methods for Screening Compounds for Treating and/or Preventing an Hepatitis C Virus Infection” (priority 2008, published 2011):
Like-named read-outs stand apart in the source and are kept apart here.

B1: SYNPO2 (protein, UniProt Q9UMS6 1-1093, looked up)
Synaptopodin-2: MGTGDFICISMTGGAPWGFRLQGGKEQKQPLQVAKIRNQSKASGSGLCEGDEVVSINGNPCADLTYPEVIKLMESITDSLQMLIKRPSSGISEALISENENKNLEHLTHGGYVESTTLQIRPATKTQCTEFFLAPVKTEVPLAENQRSGPDCAGSLKEETGPSYQRAPQMPDSQRGRVAEELILREKVEAVQPGPVVELQLSLSQERHKGASGPLVALPGAEKSKSPDPDPNLSHDRIVHINSIPTNEKADPFLRSSKIIQISSGRELRVIQESEAGDAGLPRVEVILDCSDRQKTEGCRLQAGKECVDSPVEGGQSEAPPSLVSFAVSSEGTEQGEDPRSEKDHSRPHKHRARHARLRRSESLSEKQVKEAKSKCKSIALLLTDAPNPNSKGVLMFKKRRRRARKYTLVSYGTGELEREADEEEEGDKEDTCEVAFLGASESEVDEELLSDVDDNTQVVNFDWDSGLVDIEKKLNRGDKMEMLPDTTGKGALMFAKRRERMDQITAQKEEDKVGGTPSREQDAAQTDGLRTTTSYQRKEEESVRTQSSVSKSYIEVSHGLGHVPQQNGFSGTSETANIQRMVPMNRTAKPFPGSVNQPATPFSPTRNMTSPIADFPAPPPYSAVTPPPDAFSRGVSSPIAGPAQPPPWPQPAPWSQPAFYDSSERIASRDERISVPAKRTGILQEAKRRSTTKPMFTFKEPKVSPNPELLSLLQNSEGKRGTGAGGDSGPEEDYLSLGAEACNFMQSSSAKQKTPPPVAPKPAVKSSSSQPVTPVSPVWSPGVAPTQPPAFPTSNPSKGTVVSSIKIAQPSYPPARPASTLNVAGPFKGPQAAVASQNYTPKPTVSTPTVNAVQPGAVGPSNELPGMSGRGAQLFAKRQSRMEKYVVDSDTVQAHAARAQSPTPSLPASWKYSSNVRAPPPVAYNPIHSPSYPLAALKSQPSAAQPSKMGKKKGKKPLNALDVMKHQPYQLNASLFTFQPPDAKDGLPQKSSVKVNSALAMKQALPPRPVNAASPTNVQASSVYSVPAYTSPPSFFAEASSPVSASPVPVGIPTSPKQESASSSYFVAPRPKFSAKKSGVTIQVWKPSVVEE
B2: NUCB1 (protein, UniProt Q02818 27-461, looked up)
Nucleobindin-1: VPLERGAPNKEETPATESPDTGLYYHRYLQEVIDVLETDGHFREKLQAANAEDIKSGKLSRELDFVSHHVRTKLDELKRQEVSRLRMLLKAKMDAEQDPNVQVDHLNLLKQFEHLDPQNQHTFEARDLELLIQTATRDLAQYDAAHHEEFKRYEMLKEHERRRYLESLGEEQRKEAERKLEEQQRRHREHPKVNVPGSQAQLKEVWEELDGLDPNRFNPKTFFILHDINSDGVLDEQELEALFTKELEKVYDPKNEEDDMREMEEERLRMREHVMKNVDTNQDRLVTLEEFLASTQRKEFGDTGEGWETVEMHPAYTEEELRRFEEELAAREAELNAKAQRLSQETEALGRSQGRLEAQKRELQQAVLHMEQRKQQQQQQQGHKAPAAHPEGQLKFHPDTDDVPVPAPAGDQKEVDTSEKKLLERLPEVEVPQHL
B3: PABPN1 (protein, UniProt Q86U42 2-306, looked up)
Polyadenylate-binding protein …: AAAAAAAAAAGAAGGRGSGPGRRRHLVPGAGGEAGEGAPGGAGDYGNGLESEELEPEELLLEPEPEPEPEEEPPRPRAPPGAPGPGPGSGAPGSQEEEEEPGLVEGDPGDGAIEDPELEAIKARVREMEEEAEKLKELQNEVEKQMNMSPPPGNAGPVIMSIEEKMEADARSIYVGNVDYGATAEELEAHFHGCGSVNRVTILCDKFSGHPKGFAYIEFSDKESVRTSLALDESLFRGRQIKVIPKRTNRPGISTTDRGFPRARYRARTTNYNSSRSRFYSGFNSRPRGRVYRGRARATSWYSPY
B4: TBXAS1 (protein, UniProt P24557 1-533, looked up)
Thromboxane-A synthase: MEALGFLKLEVNGPMVTVALSVALLALLKWYSTSAFSRLEKLGLRHPKPSPFIGNLTFFRQGFWESQMELRKLYGPLCGYYLGRRMFIVISEPDMIKQVLVENFSNFTNRMASGLEFKSVADSVLFLRDKRWEEVRGALMSAFSPEKLNEMVPLISQACDLLLAHLKRYAESGDAFDIQRCYCNYTTDVVASVAFGTPVDSWQAPEDPFVKHCKRFFEFCIPRPILVLLLSFPSIMVPLARILPNKNRDELNGFFNKLIRNVIALRDQQAAEERRRDFLQMVLDARHSASPMGVQDFDIVRDVFSSTGCKPNPSRQHQPSPMARPLTVDEIVGQAFIFLIAGYEIITNTLSFATYLLATNPDCQEKLLREVDVFKEKHMAPEFCSLEEGLPYLDMVIAETLRMYPPAFRFTREAAQDCEVLGQRIPAGAVLEMAVGALHHDPEHWPSPETFNPERFTAEARQQHRPFTYLPFGAGPRSCLGVRLGLLEVKLTLLHVLHKFRFQACPETQVPLQLESKSALGPKNGVYIKIVSR
B5: PRRC1 (protein, UniProt Q96M27 1-445, looked up)
Protein PRRC1: MMEESGIETTPPGTPPPNPAGLAATAMSSTPVPLAATSSFSSPNVSSMESFPPLAYSTPQPPLPPVRPSAPLPFVPPPAVPSVPPLVTSMPPPVSPSTAAAFGNPPVSHFPPSTSAPNTLLPAPPSGPPISGFSVGSTYDITRGHAGRAPQTPLMPSFSAPSGTGLLPTPITQQASLTSLAQGTGTTSAITFPEEQEDPRITRGQDEASAGGIWGFIKGVAGNPMVKSVLDKTKHSVESMITTLDPGMAPYIKSGGELDIVVTSNKEVKVAAVRDAFQEVFGLAVVVGEAGQSNIAPQPVGYAAGLKGAQERIDSLRRTGVIHEKQTAVSVENFIAELLPDKWFDIGCLVVEDPVHGIHLETFTQATPVPLEFVQQAQSLTPQDYNLRWSGLLVTVGEVLEKSLLNVSRTDWHMAFTGMSRRQMIYSAARAIAGMYKQRLPPRTV
B6: FBF1 (protein, UniProt Q8TES7 1-1133, looked up)
Fas-binding factor 1: MAPKTKKGCKVTLPEKPVKLASHTRDTTGVSQMFPSSKARTKSLLGDDVFSTMAGLEEADAEVSGISEADPQALLQAMKDLDGMDADILGLKKSNSAPSKKAAKDPGKGELPNHPKPAGGAIPTKKSLPSPSSSGHQNRRFSSEDLEDPLRGLLSYDEGGITKQPPVTQSKTASDKSPSTVRDQGPSIPLTPGDTPIRKKEELLFDDGDDIMATLGFGDSPKAEKRQIGDQEGPRPARSTLDELLGRGMATKLLARPGTGEHREFKLDKKYQRPQDSEDMWGDEDFTFGAYQPTVVSSEGRQSRRQSVSRFFADSGADPKGEPGSKQSPPMASSPIQPRKGGADWLGLKDEDLDLFPASPTREAHRESSVPVTPSVPPPASQHSTPAGLPPSRAKPPTEGAGSPAKASQASKLRASKEEKEDWLSHALSRKKSQGLAREQHAGTSEGLHLAGTAGHPPSGSQPLTSTQGLEHAAAGGSSGTTARERPCVRPGVSGSPVTQNHAASALPTGSPKRGTAPGDLSATEPATCFPSTQKPTEPSVPVQPLLPESLARSLLPSTEYQKQLLAAQVQLQCSPAELQAELLHSQARLAELEAQVRKLELERAQHELLLGSLQQQHQADLELIESAHRSRIKVLETSYQQREERLRRENEELSARYLSQCQEAEQARAELTAQHQRRLAAIAQEKDQEMERLRELQRASILDMRRDHEEQLQRLKLLKDREVDAATSATSHTRSLNSIIHQMEKFSSSLHELSSRVEASHLTTSQERELGIRQRDEQLRALQERLGQQQRDMEEERSRQQEVIGKMEARLNEQSRLLEQERWRVTAEQSKAESMQRALEEQRKVTAQQMAMERAELERAKSALLEEQKSVMLKCGEERRRLAAEWAEFSAQQKLSKERAEREAERALQVDTQREGTLISLAKQAELKIRASELRAEEKQLAAERAALEQERQELRLEKERINATALRVKLRAEEVESMSKVASEKYEEGERALREAQQVQAEQQARLQAVQQQQERLRKQEQHMHQEHLSLAQQRLQLDRARQDLPSSLVGLFPRAQGPAASSQSALMPPAPTTRWCSQPPTGLDPSPLHLHARLALLRHMAEQDRDFLENEQFFLETLKKGSYNLTSHSA

Key:
[1] = system: HCV ORFs (Gal4-DB fusions); format: binding, HCV genotype 1b, isolate con1; conditions: human protein listed by gene symbol; the value names the HCV protein it interacts with
[2] = biological target: T1, HCV ORFs (Gal4-DB fusions) (Hepatitis C virus genotype 1b, UniProt Q9WMX2); format: binding, HCV genotype 1b, isolate con1; conditions: human protein as prey
T1 construct: expressed in transfected cells; host or cells: Saccharomyces cerevisiae MAV203 (IMAP1) / AH109 (IMAP2)
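Note: yeast two-hybrid screens using HCV genotype 1b proteins fused to Gal4-DB as baits against prey cDNA libraries from human spleen and foetal brain, IMAP1 via transformation and IMAP2 via mating.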

Molecule | Interaction with viral protein [1] | IMAP Y2H IMAP2 (number of IST) ([2]; HCV protein NS3 as bait) | IMAP Y2H IMAP2 (number of IST) ([2]; HCV protein NS5A as bait) | IMAP Y2H IMAP2 (number of IST) ([2]; HCV protein CORE as bait)
B1 | NS3 | 1 |  | 
B2 | NS3 and NS5A |  | 2 | 
B3 | CORE |  |  | 1
B4 | NS3 | 1 |  | 
B5 | NS3 | 1 |  | 
B6 | NS3 | 3 |  | 
